According to patent US20180291088A1:
“And” between values parts separate entries of the source, which are not always exact repeats. Equal values may be shown once.

B1: EVB167 monoclonal antibody (antibody, V domains shown)
VH: AVQLVQSGAEVKKPGTTVKISCKVSGYTFIQEYIHWVQQAPGKGLVWMGLGDPENNETLYSEDFQGRVTMTADTSSDTAYLELRSLTFADTAVYFCTSRKSWWGQGTLVTVAS
VL: ELVLTQSPGTLSLSPGESATLSCRASQSLSSDSVSWFQQKPGQAPRLVIHGTSKRATGIPDRFSGGGSGTDFTLTIARLEPEDFAVYYCQRSGYGMSVTWTFGQGTTVEIK
B2: EVB100 monoclonal antibody (antibody, V domains shown)
VH: QVQLQESGPGLVKPSDTLSLTCTVSGGSLSSFYWSWIRQPPGKGLEWIGYIYYSGSPNYSPSLESRVTMSVDTTRNQISLKLDSVTAADTAVYYCVRASRSYYWGSYRPTAFDSWGQGTLVTVSS
VL: SYELTQPLSVSVSPGQTAIFTCSGDNLGDKYVCWFQQRPGQSPMLLIYQDNKRPSGIPERFSGSNSGNTATLTISGTQSTDEADYYCQTWDSTVVFGGGTKLTVL
B3: EVB166 monoclonal antibody (antibody, V domains shown)
VH: QVQLVQSGAEVKKPGSSVKVSCKTSGGTLSNYAISWVRQAPGQGLEWMGGTIPTLGMSTYAPNFQGRVAITADKSTSTAYMELSSLRSDDTAVYYCATMGSADTSFYFYMDVWGKGTTVTVSS
VL: EIVLTQSPGTLSLSPGERATLSCRASQSVSSSYLAWYQQKPGQAPRLLIYGTSSRATGIPDRFSGSASGTDFTLTISRLEPEDFAVYYCQQYAYSPFTFGPGTKVDIK
B4: EVB165 monoclonal antibody (antibody, V domains shown)
VH: DVQLVESGGGVVQPGGSLKLACVVSGFRFSDYWMSWVRQAPGKGLEWVANIKQDGSGKYYVDSVKGRFTVSRDNAKNSLYLHMTSLGAEDTAVYFCARAAPTGSYTNILVDNVHFDYWGQGILVAVSS
VL: GIQLTQSPGSLSASVGDSVTITCRPNQNIATYINWYQQTPGKAPKLLIYAASILQSGVPSRFSGAGSGTHFTLIISTLQPEDSATYYCQQSYSTPWTFGQGTKVEIK
B5: EVB114 monoclonal antibody (antibody, V domains shown)
VH: EVQLVESGGGLIQPGGSLRLSCAASGFALRMYDMHWVRQTIDKRLEWVSAVGPSGDTYYADSVKGRFAVSRENAKNSLSLQMNSLTAGDTAIYYCVRSDRGVAGLFDSWGQGILVTVSS
VL: DIQMTQSPSSLSASVGDRITITCRASQAFDNYVAWYQQRPGKVPKLLISAASALHAGVPSRFSGSGSGTHFTLTISSLQPEDVATYYCQNYNSAPLTFGGGTKVEIK

Legend:
[1] = biological target: EBOV GP on pseudotyped lentivirus particles (EBOV , Mayinga) (UniProt Q05320); test: cell-based or functional assay
[2] = biological target: EBOV GP , coated on ELISA plates (EBOV , Mayinga) (UniProt Q05320)
[3] = biological target: EBOV GP , coated on ELISA plates (EBOV , Mayinga) (UniProt Q05320); remark: listed apart in the source
[4] = biological target: EBOV GP on pseudotyped lentivirus particles (EBOV , Mayinga), Q05320; test: cell-based or functional assay

| Molecule | EC50 [3] | maximum inhibition of input pseudovirus [4] | also measured |
| --- | --- | --- | --- |
| KZ52 monoclonal antibody | – | – | maximum inhibition of input pseudovirus [1]: 80% and 90% |
| 13C6 monoclonal antibody | – | – | neutralization of pseudovirus at 10 µg/mL [1]: < 20% |
| B1 | – | – | Abs 450 [2]: 3.37 A450 and 2.97 A450 |
| B2 | 0.26 µg/mL | 100% | – |
| B3 | – | 100% | – |
| B4 | > 1 µg/mL | 100% | Abs 450 [2]: 3.17 A450 and 1.72 A450 |
| B5 | 0.07 µg/mL | 100% | maximal binding, higher than the other mAbs [3]: 100% |
